Source: article PMC10033410 (Nature, 2023)

Biological target: T1, human APOBEC3G (human, UniProt Q9HC16 1-384)
T1 construct: also called A3G; hA3G; not shown: Strep-tag, C-terminal, kept
Experiment: cryo-EM structure; single-particle cryo-EM of the co-expressed, co-purified complex (SEC peak fraction, 1.9 μM; 30 mM HEPES, 150 mM NaCl, 5% glycerol, 1 mM TCEP); co-purified insect-cell ssRNA between A3G and Vif; monomer map 2.7 Å, dimer states 1, 1' and 2
Details: both partners purified

T1 sequence (Q9HC16 whole entry): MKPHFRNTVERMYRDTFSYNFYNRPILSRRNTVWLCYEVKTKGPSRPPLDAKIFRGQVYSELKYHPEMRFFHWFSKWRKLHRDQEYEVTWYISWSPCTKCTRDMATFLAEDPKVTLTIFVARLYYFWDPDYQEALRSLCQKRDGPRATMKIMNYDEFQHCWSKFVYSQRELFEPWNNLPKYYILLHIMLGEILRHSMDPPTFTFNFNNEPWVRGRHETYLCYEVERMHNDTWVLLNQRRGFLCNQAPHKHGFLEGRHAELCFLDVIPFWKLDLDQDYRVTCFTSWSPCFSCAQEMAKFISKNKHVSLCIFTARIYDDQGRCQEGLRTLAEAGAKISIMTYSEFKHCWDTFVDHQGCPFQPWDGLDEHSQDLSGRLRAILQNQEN

B1: HIV-1 HXB2 Vif (natural protein)
chain: not shown
notes: also called Vif_(HXB2)
B1: binds.
